Assay results published in patent publication US20220054706A1 (KING ABDULLAH UNIVERSITY OF SCIENCE AND TECHNOLOGY, published 2022).

Molecular target: the molecule itself
Assay: 2D NMR (NOESY/TOCSY) of the self-assembling peptide in 90% H2O-10% D2O
Experimental: 2D NMR of peptide solution was carried out to study the spatial structure during the assembly process. These NMR spectra were recorded on a Bruker Avance III 600 MHz equipped with a 5 mm Z-gradient SmartProbe BB(F)-H-D (BrukerBioSpin™, Rheinstetten, Germany). The samples were prepared from 10 mg of peptide in a mixture of 900 μL of 1 mM 2,2-Dimethyl-2-silapentane-5-sulfonate (DSS) and 100 μL of D₂O. ¹H-NMR was recorded by collecting 32 scans using excitation sculping with gradients pulse program (zgesgp) for water suppression.¹⁰⁹ COSY and TOCSY were then conducted to see the correlation between hydrogens that were coupled to each other. COSY was performed using a time domain of 4096 (F2)×512 (F1), 16 number of scans, a pulse program of cosydfgpph19, and 3-9-19 pulse sequence for water suppression.¹¹⁰⁻¹¹² For TOCSY, the parameters with time domain of 8192 (F2)×512 (F1), 16 number of scans, a pulse program of dipsi2gpph19, and 3-9-19 pulse sequence for water suppression were set. Finally, the NOESY acquisition was carried out with a time-domain size of 2048 (F2)×512 (F1), 32 scan numbers, a pulse program of noesyesgpph19, a mixing time of 400 ms, and water suppression using 3-9-19 pulse sequence. Broker Topspin 3.5pI7 software was used in all NMR experiments for both data collection and spectral analyses.

B1: Ac-Ile-Val-Phe-Lys-NH2 (IVFK) (peptide)
peptide: Ac-IVFK-NH2
notes: Synthetic self-assembling tetrapeptide; In the NMR experiment it stood at 10 mg in 900 uL of 1 mM DSS plus 100 uL D2O; also called aromatic IVFK
B1: binds.
